In patent US20170363643A1:

Tests used:
[1] = target: His-tagged recombinant human SMN protein (ProteinTech, catalog # ag14333) (human) (UniProt Q16637); assay: Erenna sandwich assay, capture MABE230; SMN 2 pg/mL, MPs 10 µg/well, Det Ab 100 ng/mL, Cap Ab/MP 12.5 µg/mg
[2] = target: His-tagged recombinant human SMN protein (ProteinTech, catalog # ag14333) (human) (UniProt Q16637); assay: Erenna sandwich assay, capture MABE230; SMN 2 pg/mL, MPs 10 µg/well, Det Ab 500 ng/mL, Cap Ab/MP 12.5 µg/mg
[3] = target: His-tagged recombinant human SMN protein (ProteinTech, catalog # ag14333) (human) (UniProt Q16637); assay: Erenna sandwich assay, capture MABE230 12.5 µg/mg MPs; Det Ab 1000 ng/mL; SMN 200.00 pg/mL
[4] = target: His-tagged recombinant human SMN protein (ProteinTech, catalog # ag14333) (human) (UniProt Q16637); assay: Erenna sandwich assay, capture MABE230 12.5 µg/mg MPs; Det Ab 500 ng/mL; SMN 0.23 pg/mL
[5] = target: His-tagged recombinant human SMN protein (ProteinTech, catalog # ag14333) (human) (UniProt Q16637); assay: Erenna sandwich assay, capture MABE230; SMN 2 pg/mL, MPs 5 µg/well, Det Ab 100 ng/mL, Cap Ab/MP 25 µg/mg
[6] = target: His-tagged recombinant human SMN protein (ProteinTech, catalog # ag14333) (human) (UniProt Q16637); assay: Erenna sandwich assay, capture MABE230; SMN 2 pg/mL, MPs 10 µg/well, Det Ab 1000 ng/mL, Cap Ab/MP 12.5 µg/mg
[7] = target: His-tagged recombinant human SMN protein (ProteinTech, catalog # ag14333) (human) (UniProt Q16637); assay: Erenna sandwich assay, capture MABE230; human CSF sample 1 spiked with recombinant SMN 5.0 pg/mL (endogenous SMN also present)
[8] = target: His-tagged recombinant human SMN protein (ProteinTech, catalog # ag14333) (human) (UniProt Q16637); assay: Erenna sandwich assay, capture MABE230; human CSF sample 3 spiked with recombinant SMN 5.0 pg/mL (endogenous SMN also present)
[9] = target: His-tagged recombinant human SMN protein (ProteinTech, catalog # ag14333) (human) (UniProt Q16637); assay: Erenna sandwich assay, capture MABE230; human CSF sample 5 spiked with recombinant SMN 5.0 pg/mL (endogenous SMN also present)
[10] = target: His-tagged recombinant human SMN protein (ProteinTech, catalog # ag14333) (human) (UniProt Q16637); assay: Erenna sandwich assay, capture MABE230; SMN 2 pg/mL, MPs 10 µg/well, Det Ab 1000 ng/mL, Cap Ab/MP 25 µg/mg

Sequence of UniProt Q16637 (Q16637 whole entry): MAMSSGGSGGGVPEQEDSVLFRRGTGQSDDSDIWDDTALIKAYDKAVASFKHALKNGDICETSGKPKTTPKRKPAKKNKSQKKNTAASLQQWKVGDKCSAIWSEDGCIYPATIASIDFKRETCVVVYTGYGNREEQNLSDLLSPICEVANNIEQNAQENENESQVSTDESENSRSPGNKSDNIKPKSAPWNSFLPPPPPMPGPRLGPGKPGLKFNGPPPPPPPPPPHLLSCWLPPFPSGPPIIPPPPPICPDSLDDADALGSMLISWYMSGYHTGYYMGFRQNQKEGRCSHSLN

ProteinTech anti-SMN2 (catalog #60154-1-Ig) (antibody)
detected events (DE) (detected events) [1]: 1050
detected events (DE) (detected events) [2]: 2120
detected events (DE) (detected events) [3]: 9360
event photons (EP) (event photons) [3]: 2.04e+07
detected events (DE) (detected events) [4]: 301
event photons (EP) (event photons) [4]: 40000
detected events (DE) (detected events) [5]: 817
detected events (DE) (detected events) [6]: 2920
detected events (DE) (detected events) [7]: 5070
detected events (DE) (detected events) [8]: 5980
detected events (DE) (detected events) [9]: 6070
detected events (DE) (detected events) [10]: 2670
